Results: US20200239586A1 (LA TROBE UNIVERSITY, published 2020)

Columns and labels:
[1] = biological target: phage expressed hFn14 mutant H60K (human, UniProt Q9NP84 28-77); test: phage ELISA (Method 2): antibody coated on the plate, 10-fold dilutions of phage displaying hFn14 H60K; biotin anti-M13 antibody, streptavidin-HRP, TMB, OD 450 nm; x axis = dilution of phage
Experimental: ELISAs showing the reactivity of mutant H60A and H60K hFn14 phage constructs with the anti-Fn14 monoclonal antibodies CRCBT-06-001, CRCBT-06-002, CRCBT-06-004 compared to ITEM-1 and ITEM-4. ITEM-2 was assessed on H60K. Binding was detected using Biotin-conjugated anti-M13-phage monoclonal antibody followed by HRP-conjugated Streptavidin and TMB substrate. Optical density at 450 nm was quantified using a Spectramax spectrophotometer. Error bars for each dilution represent the standard deviation of duplicate assays. X axis=dilution of phage. Methods according to Epitope mapping using phage expressed Fn14—Method 2.
(§1) The wells of Maxisorp immunoplates (Nunc) were coated overnight at 4° C. with the target monoclonal antibodies or recombinant Tweak-Fc at a concentration of 1.5 μg/ml in PBS. mAb 5G8 was used as a negative control for ELISA plates coated with tested antibodies. […] 10-fold serial dilutions of phage were made using PBS solution and phage dilutions were added to the coated, blocked ELISA plates for 1 hour, shaking at room temperature. Phage was subsequently removed from the wells and the ELISA plates were washed three times with PBS/0.05% Tween 20.
Method A: HRP-conjugated anti-M13-phage antibody (GE Healthcare) at a 1/5000 dilution in PBS was then added to the wells of the ELISA plates for 1 hour, shaking at room temperature. […]

[2] = biological target: phage expressed hFn14 mutant S54A (human, UniProt Q9NP84 28-77); test: phage ELISA, mAb coated (Method 2)
Sequence of phage expressed hFn14 mutant S54A (Q9NP84 28-77 S54A): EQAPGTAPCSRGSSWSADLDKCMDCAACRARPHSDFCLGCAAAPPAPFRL
Experimental: as §1
Method A: HRP-conjugated anti-M13-phage antibody (GE Healthcare) at a 1/5000 dilution in PBS was then added to the wells of the ELISA plates for 1 hour, shaking at room temperature. The antibody solution was then removed from the wells and the ELISA plates were washed four times with PBS/0.05% Tween 20. Method B: Biotin-conjugated anti-M13-phage antibody (GE Healthcare) diluted in PBS was then added to the wells of the ELISA plates for 1 hour shaking at room temperature. The antibody solution was then removed from the wells and the ELISA plates were washed three times with PBS/0.05% Tween 20. HRP-conjugated Streptavidin diluted in PBS was then added to the wells of the ELISA plates for 1 hour, shaking at room temperature. […] Optical density at 450 nm was quantified using a Spectramax absorbance spectrophotometer.

[3] = biological target: phage-displayed hFn14 extracellular domain mutant M50A (human, UniProt Q9NP84 28-77); test: phage ELISA, antibody on plate, 10-fold phage dilutions
Sequence of phage-displayed hFn14 extracellular domain mutant M50A (Q9NP84 28-77 M50A): as the sequence (Q9NP84 28-77 S54A) above, with M23A, A27S counted along it
Excerpt: (§2) ELISAs showing the reactivity of the repertoire of hFn14 phage constructs with the anti-Fn14 monoclonal antibodies CRCBT-06-001, CRCBT-06-002, CRCBT-06-003 and CRCBT-06-004. Binding was detected using HRP-conjugated anti-M13-phage polyclonal IgG and TMB substrate. Optical density at 450 nm was quantified using a Spectramax spectrophotometer. Error bars for each dilution represent the standard deviation of duplicate assays. In this figure, reference to “FN14 Ectodomain” is a reference to the extracellular domain of hFn14. Methods according to Epitope mapping using phage expressed Fn14—Method 1.
(§3) The wells of Maxisorp immunoplates (Nunc) were coated overnight at 4° C. with the target monoclonal antibodies or recombinant Tweak-Fc at a concentration of 2 μg/mL in PBS. MAb 5G8 was used as a negative control for ELISA plates coated with tested antibodies. Recombinant Fc alone was used as a negative control for ELISA plates coated with recombinant Tweak-Fc. […] 10-fold serial dilutions of phage were made using 5% skim milk/PBS solution in 2 ml-well microtiter plates and phage dilutions were added to the coated, blocked ELISA plates for 1 hr, with vigorous shaking at room temperature. Phage were subsequently removed from the wells and the ELISA plates were washed 4× with PBS/0.05% Tween 20. HRP-conjugated anti-M13-phage polyclonal IgG diluted in PBS was then added to the wells of the ELISA plates for 1 hr, with vigorous shaking at room temperature. The antibody solution was then removed from the wells and the ELISA plates were washed 5× with PBS/0.05% Tween 20. ELISAs were developed using TMB substrate and the reaction was stopped using 2 M H₂SO₄ solution. Optical density at 450 nm was quantified using a Spectramax absorbance spectrophotometer.

[4] = biological target: phage-displayed hFn14 extracellular domain mutant K48A (human, UniProt Q9NP84 28-77); test: as above
Sequence of phage-displayed hFn14 extracellular domain mutant K48A (Q9NP84 28-77 K48A): as the sequence (Q9NP84 28-77 S54A) above, with K21A, A27S counted along it
Excerpt: as §2, §3

[5] = biological target: phage-displayed hFn14 extracellular domain mutant D62E (human, UniProt Q9NP84 28-77); test: as above
Sequence of phage-displayed hFn14 extracellular domain mutant D62E (Q9NP84 28-77 D62E): as the sequence (Q9NP84 28-77 S54A) above, with A27S, D35E counted along it
Excerpt: as §2, §3

[6] = biological target: phage-displayed hFn14 extracellular domain mutant D45A (human, UniProt Q9NP84 28-77); test: as above
Sequence of phage-displayed hFn14 extracellular domain mutant D45A (Q9NP84 28-77 D45A): as the sequence (Q9NP84 28-77 S54A) above, with D18A, A27S counted along it
Excerpt: as §2, §3

Measured: binding result

Sequence of phage expressed hFn14 mutant H60K (Q9NP84 28-77 H60K): as the sequence (Q9NP84 28-77 S54A) above, with A27S, H33K counted along it

B1: CRCBT-06-002 (antibody, IgG1, V domains shown)
VH: EVKLQQSGGGLVQPGGSMKLSCVASGFTFSYYWMNWVRQSPEQGLEWIAEIRLQSNDYPTHYAESVKGRFTISRDDSKNSVYLQMNNLRPEDTGIYYCACRYADYFDHWGQGTTLTVSS
VL: DTVLTQSPASLVVSLGQRATISCRASQSVSTSDYSYIHWYQQKPGQPPKFLIKYASNRDSGVPARFSGSGSGTDFTLNIHPVEEDDTAIYYCQHSWEIPPTFGAGTKLELQR
binds: all assays above

B2: CRCBT-06-001 (antibody, IgG2b, V domains shown)
VH: QVQLQQSGGGLVQPGGSMKLSCIASGFTFSSYWMSWVRQSPEKGLEWVAEIRSKSDNYATHYAESVKGKFTISRDDSKSRFFLQMNNLRAEDTGIYYCSSTYADYFHYWGQGTDLTVSS
VL: DIVMTQTPASLAVSLGQRATISCRASQSVSTSTYSYMHWYQQKPGQPPKLLIKYASSLESGVPARFSGSGSGTDFTLNIHPVEEDDTATYYCQHSWEIPYTFGGGTKLEIKR
binds: all assays above
